Measured values published in patent publication US20110256153A1 (IMMUNOGEN, published 2011).
“And” between values parts separate entries of the source, which are not always exact repeats. Equal entries are not always repeated. Each block holds one binder with its values, some of them ahead of it.

Experiments:
hCD37-M3 = target: T1, hCD37-M3 (human/murine chimera, UniProt P11049 1-281); assay: flow cytometry, 300-19 cells expressing hCD37-M3, 1.5 µg/mL antibody
T1 construct: stably expressed on 300-19 cells; also called hCD37-M3 variant
T1 chain: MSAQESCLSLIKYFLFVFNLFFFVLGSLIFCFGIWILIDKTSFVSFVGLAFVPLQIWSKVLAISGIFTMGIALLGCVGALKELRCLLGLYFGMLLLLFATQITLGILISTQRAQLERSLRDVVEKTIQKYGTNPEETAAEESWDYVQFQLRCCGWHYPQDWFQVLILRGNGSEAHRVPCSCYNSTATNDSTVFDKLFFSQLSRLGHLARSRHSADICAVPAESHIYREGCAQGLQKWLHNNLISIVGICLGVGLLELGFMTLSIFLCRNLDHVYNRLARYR
Protocol: (§1) Binding specificity was tested by flow cytometry using purified antibodies. […] All murine antibodies were incubated for 3 h with either CD37-expressing 300-19 cells or the non-transfected 300-19 cells (1×10⁵ cells per sample) in 100 μL FACS buffer (RPMI-1640 medium supplemented with 2% normal goat serum). Then, the cells were pelleted, washed, and incubated for 1 h with 100 μL of FITC-conjugated goat anti-mouse IgG-antibody (Jackson Laboratory, 6 μg/mL in FACS buffer). The cells were pelleted again, washed with FACS buffer and resuspended in 200 μL of PBS containing 1% formaldehyde. Samples were acquired using a FACSCalibur flow cytometer with the HTS multiwell sampler or a FACS array flow cytometer and analyzed using CellQuest Pro (all from BD Biosciences, San Diego, US).
(§2) Binding of various CD37 antibodies to cells expressing human CD37 wildtype and variants was analyzed by flow cytometry using 1.5 μg/mL of each antibody. The isolated antibodies of this invention were compared to commercially available CD37 antibody WR17, as well as the TRU-016 SMIP. […] Likewise, all antibodies tested bound the hCD37-M3 variant (FIG. 18B). In contrast, the isolated antibodies of this invention bound the hCD37-M1 variant, while TRU-016 and WR17 were unable to bind hCD37-M1 variant (FIG. 19A). The CD37-50 and CD37-51 antibodies and TRU-016 were also able to bind the hCD37-M45 variant. […] In contrast, the CD37-3, CD37-12, CD37-38, CD37-56 and CD37-57 antibodies require at least one of the AA residues in the hCD37-M45 variant that were changed to the corresponding murine AA residues for binding to the CD37 antigen.

human CD37 [1] = target: T2, human CD37 (human, UniProt P11049 1-278); assay: flow cytometry titration on BJAB cells; apparent Kd
T2 construct: Tetraspanin antigen; Expressed on 300-19 cells transfected with pSRa-CD37 (entire CDS) or endogenous on WSU-DLCL-2, BJAB and Ramos lymphoma cells; also called CD37 antigen; human CD37 wildtype
T2 sequence: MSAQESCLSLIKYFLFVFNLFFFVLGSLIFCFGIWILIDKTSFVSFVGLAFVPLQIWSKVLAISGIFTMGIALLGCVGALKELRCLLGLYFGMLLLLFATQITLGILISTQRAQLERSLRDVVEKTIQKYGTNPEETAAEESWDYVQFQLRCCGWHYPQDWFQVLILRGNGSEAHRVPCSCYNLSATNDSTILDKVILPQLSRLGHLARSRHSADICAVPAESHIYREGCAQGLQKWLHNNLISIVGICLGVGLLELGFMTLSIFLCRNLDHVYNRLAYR
Protocol: as §1
The humanized antibodies huCD37-38, huCD37-50, huCD37-51, huCD37-56 and chCD37-57 were assayed for their binding affinity to BJAB cells in comparison to their murine counterparts. Flow cytometry binding assays were carried out using secondary FITC-conjugated goat-anti-murine and -anti-human antibodies, analyzed as described in Example 2 and dose-response curves were generated by non-linear regression for each antibody. The value for the apparent dissociation constant (Kd) of each antibody was calculated using GraphPad Prism v4 (GraphPad software, San Diego, Calif.).

hCD37-M1 = target: T3, hCD37-M1 (human/murine chimera, UniProt P11049 1-281); assay: flow cytometry, 300-19 cells expressing hCD37-M1, 1.5 µg/mL antibody
T3 construct: stably expressed on 300-19 cells; also called hCD37-M1 variant
T3 chain: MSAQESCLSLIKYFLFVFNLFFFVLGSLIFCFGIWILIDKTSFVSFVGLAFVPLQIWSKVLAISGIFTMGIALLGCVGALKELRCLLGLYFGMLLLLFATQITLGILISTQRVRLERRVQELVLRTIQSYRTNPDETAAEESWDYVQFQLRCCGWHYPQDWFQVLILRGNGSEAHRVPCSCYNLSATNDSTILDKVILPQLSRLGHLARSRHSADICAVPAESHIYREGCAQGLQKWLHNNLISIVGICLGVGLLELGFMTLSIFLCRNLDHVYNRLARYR
Protocol: as §1, §2

macaque CD37 = target: T4, macaque CD37 (macaque, UniProt P11049 1-277 (human entry)); assay: flow cytometry, 300-19/CD37mac cells
T4 construct: Expressed on 300-19 cells transfected with pSRa-CD37mac (300-19/CD37mac cells); also called macaca CD37; macaque derived CD37 antigen
T4 chain: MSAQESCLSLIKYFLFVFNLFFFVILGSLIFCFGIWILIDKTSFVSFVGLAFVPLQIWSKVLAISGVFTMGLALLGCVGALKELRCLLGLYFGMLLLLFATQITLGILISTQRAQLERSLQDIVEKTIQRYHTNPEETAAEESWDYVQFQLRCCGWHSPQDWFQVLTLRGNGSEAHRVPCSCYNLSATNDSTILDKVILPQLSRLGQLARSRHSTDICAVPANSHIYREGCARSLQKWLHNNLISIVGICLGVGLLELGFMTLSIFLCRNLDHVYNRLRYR
Protocol: as §1
The murine antibodies muCD37-3, muCD37-12, muCD37-38, […], muCD37-51, muCD37-56 and muCD37-57 were assayed for their ability to bind to 300-19/CD37mac cells expressing macaque CD37. Flow cytometry binding assays were carried out using secondary FITC-conjugated goat-anti-murine or goat-anti-human antibodies, analyzed as described in Example 2. Binding was compared to the previously described anti-CD37 antibody WR17 and the anti-CD37 SMIP TRU-016. […] In contrast, muCD37-3, muCD37-12, the previously described anti-CD37 antibody WR17 and the anti-CD37 SMIP TRU-016 are unable to bind the macaque derived CD37 antigen.

hCD37-M45 = target: T5, hCD37-M45 (human/murine chimera, UniProt P11049 1-281); assay: flow cytometry, 300-19 cells expressing hCD37-M45
T5 construct: stably expressed on 300-19 cells; also called hCD37-M45 variant
T5 chain: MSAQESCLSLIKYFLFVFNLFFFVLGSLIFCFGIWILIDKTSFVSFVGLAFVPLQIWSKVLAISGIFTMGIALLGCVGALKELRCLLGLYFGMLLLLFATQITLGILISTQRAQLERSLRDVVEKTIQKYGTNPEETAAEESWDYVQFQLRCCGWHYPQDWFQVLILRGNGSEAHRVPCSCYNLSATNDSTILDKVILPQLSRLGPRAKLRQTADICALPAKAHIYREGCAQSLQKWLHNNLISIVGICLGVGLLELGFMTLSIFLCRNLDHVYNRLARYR
Protocol: as §1, §2

human CD37 [2] = target: T2, human CD37; assay: cell-based or functional assay
human CD37 [3] = target: T2, human CD37; assay: flow cytometry titration on BJAB cells (FIG. 20A); apparent Kd
human CD37 [4] = target: T2, human CD37; assay: competition flow cytometry on BJAB cells; competitor PE-labeled muCD37-3 (1 nM)
Protocol: Flow cytometry binding assays using BJAB cells and a competitive binding format were used to evaluate binding affinity of chimeric and humanized versions of CD37-3. BJAB cells were incubated with a 1 nM concentration of PE-labeled muCD37-3 antibody and competition was measured by adding varying amounts of muCD37-3, chCD37-3, huCD37-3v1.0 or huCD37-3v1.01. The samples were incubated for 3 hrs at 4° C. Then, the cells were pelleted, washed with FACS buffer and resuspended in 200 μL of PBS containing 1% formaldehyde. Samples were acquired using a FACSCalibur flow cytometer with the HTS multiwell sampler and analyzed using CellQuest Pro (all from BD Biosciences, San Diego, US). The resulting mean PE fluorescence was plotted against the amount of competing antibody used in a semi-log plot. FIG. 9B depicts the dose-response curves generated by non-linear regression for each antibody. The value for the apparent dissociation constant (Kd) of each antibody was calculated using GraphPad Prism v4 (GraphPad software, San Diego, Calif.).

binding result (hCD37-M3): binds
Kd (human CD37 [1]): 0.4 nM
binding result (hCD37-M1): binds
binding result (macaque CD37): binds
binding result (hCD37-M45): no binding (tested: 1.5 µg/mL)
B1: muCD37-38 (antibody, mouse IgG1, kappa, V domains shown)
VH: DVQLQESGPDLVKPSQSLSLTCTVTGYSITSGFGWHWIRQFPGNKLEWMAYILYSGGTDYNPSLKSRISITRDTSKNQFFLRLSSVTTEDTATYYCARGYYGYGAWFVYWGQGTLVTVSA
VL: QIVLTQSPAIMSASPGEKVTMTCSASSSVTYMHWYQQKSGTSPKRWIYDTSKLASGVPARFSGGGSGTSYSLTISSMEAEDAATYYCQQWISNPPTFGGGTKLEIKR
notes: Murine hybridoma antibody

binding result (hCD37-M3): binds
Kd (human CD37 [1]): 0.4 nM
binding result (hCD37-M1): binds
binding result (macaque CD37): binds
binding result (hCD37-M45): no binding (tested: 1.5 µg/mL)
B2: muCD37-56 (antibody, mouse IgG1, kappa, V domains shown)
VH: DVQLQESGPDLVKPSQSLSLTCTVTGYSITSGFAWHWIRQFPGNKLEWMGYIHYSGGTNYNPSLKSRVSITRDTSKNQFFLQLNSVTTEDTATYYCARGYYGFGAWFAYWGQGTLVPVSA
VL: QIVLTQSPAFMSASPGDKVTMTCSASSSVTYMHWYQQKSGTSPKRWIYDTSKLASGVPARFSGGGSGTSYSLTISTMEAEDAATYYCQQWISDPPTFGGGTKLEIKR
notes: Murine hybridoma antibody

binding result (hCD37-M3): binds
Kd (human CD37 [1]): 1 nM
binding result (hCD37-M1): binds
binding result (macaque CD37): binds
binding result (hCD37-M45): no binding (tested: 1.5 µg/mL)
B3: muCD37-57 (antibody, mouse IgG2a, kappa, V domains shown)
VH: DVQLQESGPDLLKPSQSLSLTCTVTGYSITSGFAWHWIRQFPGNKLEWMGYILYSGSTVYSPSLKSRISITRDTSKNQFFLQLNSVTTEDTATYYCARGYYGYGAWFAYWGQGTLVTVSA
VL: QIVLTQSPAIMSASPGEKVTMTCSATSSVTYMHWYQQKSGTSPKRWIYDTSKLASGVPARFSGSGSGTSYSLTISSMEAEDAATYYCQQWSDNPPTFGSGTKLEIKR
notes: Murine hybridoma antibody

Kd (human CD37 [3]): 0.46 nM
B4: huCD37-3-SMCC-DM1 (antibody, human IgG1, kappa, V domains shown)
VH: QVQVQESGPGLVAPSQTLSITCTVSGFSLTTSGVSWVRQPPGKGLEWLGVIWGDGSTNYHPSLKSRLSIKKDHSKSQVFLKLNSLTAADTATYYCAKGGYSLAHWGQGTLVTVSS
VL: DIQMTQSPSSLSVSVGERVTITCRASENIRSNLAWYQQKPGKSPKLLVNVATNLADGVPSRFSGSGSGTDYSLKINSLQPEDFGTYYCQHYWGTTWTFGQGTKLEIKR
modifications: DM1 attached through SMCC linker; attachment residues not stated; 3.5-4 DM1 per antibody
notes: heavy chain version as for huCD37-3, see its note
EC50 of in vitro cytotoxicity, BJAB cells (human CD37 [2]): 0.041 nM and 0.019 nM
EC50 of in vitro cytotoxicity, Daudi cells (human CD37 [2]): 0.065 nM and 0.036 nM
EC50 of in vitro cytotoxicity, Namalwa cells (human CD37 [2]): 0.033 nM
EC50 of in vitro cytotoxicity, Raji cells (human CD37 [2]): 0.071 nM
EC50 of in vitro cytotoxicity, Raji-VCR cells (human CD37 [2]): 0.11 nM
EC50 of in vitro cytotoxicity, Ramos cells (human CD37 [2]): 0.16 nM
EC50 of in vitro cytotoxicity, SU-DHL-4 cells (human CD37 [2]): 0.031 nM
EC50 of in vitro cytotoxicity, WST-8 assay, Daudi cells (human CD37 [2]): 0.067 nM
EC50 of in vitro cytotoxicity, WST-8 assay, Granta-519 cells (human CD37 [2]): 0.047 nM

Kd (human CD37 [3]): 0.56 nM
B5: huCD37-3-SPP-DM1 (antibody, human IgG1, kappa, V domains shown)
VH: QVQVQESGPGLVAPSQTLSITCTVSGFSLTTSGVSWVRQPPGKGLEWLGVIWGDGSTNYHPSLKSRLSIKKDHSKSQVFLKLNSLTAADTATYYCAKGGYSLAHWGQGTLVTVSS
VL: DIQMTQSPSSLSVSVGERVTITCRASENIRSNLAWYQQKPGKSPKLLVNVATNLADGVPSRFSGSGSGTDYSLKINSLQPEDFGTYYCQHYWGTTWTFGQGTKLEIKR
modifications: DM1 attached through SPP linker; attachment residues not stated; 3.5-4 DM1 per antibody
notes: as for B4
EC50 of in vitro cytotoxicity, BJAB cells (human CD37 [2]): 0.11 nM
EC50 of in vitro cytotoxicity, Daudi cells (human CD37 [2]): 0.12 nM
EC50 of in vitro cytotoxicity, Granta-519 cells (human CD37 [2]): 0.13 nM

EC50 (human CD37 [4]): 1 nM
B6: huCD37-3v1.0 (antibody, human IgG1, kappa, V domains shown)
VH: QVQVQESGPGLVAPSQTLSITCTVSGFSLTTSGVSWVRQPPGKGLEWLGVIWGDGSTNYHPSLKSRLSIKKDHSKSQVFLKLNSLTAADTATYYCAKGGYSLAHWGQGTLVTVSS
VL: DIQMTQSPSSLSVSVGERVTITCRASENIRSNLAWYQQKPGKSPKLLVNVATNLADGVPSRFSGSGSGTDYSLKINSLQPEDFGTYYCQHYWGTTWTFGQGTKLEIKR
notes: Resurfaced (humanized) CD37-3, version 1.0

EC50 (human CD37 [4]): 0.6 nM
B7: huCD37-3v1.01 (antibody, human IgG1, kappa, V domains shown)
VH: QVQVQESGPGLVAPSQTLSITCTVSGFSLTTSGVSWVRQPPGKGLEWLGVIWGDGSTNYHSSLKSRLSIKKDHSKSQVFLKLNSLTAADTATYYCAKGGYSLAHWGQGTLVTVSS
VL: DIQMTQSPSSLSVSVGERVTITCRASENIRSNLAWYQQKPGKSPKLLVNVATNLADGVPSRFSGSGSGTDYSLKINSLQPEDFGTYYCQHYWGTTWTFGQGTKLEIKR
notes: also called huCD37-3v1.1
